{"source": "paper PMC10732536", "target": "Spz, activated cystine-knot domain (Drosophila melanogaster)", "assay": "non-reducing SDS-PAGE and immunoblot; proSpz cleaved by the activated proteases, in the absence of DTT (fig. S10); anti-Spz C106 antibody", "data": [{"substance": "Spz, activated cystine-knot domain (domain or fragment)", "values": [{"measurement": "stoichiometry N", "result": 2}]}]}
